{"source": "paper PMC10848425", "about": "“Selective enhanced cytotoxicity of amino acid deprivation for cancer therapy using thermozyme functionalized nanocatalyst” (Journal of Nanobiotechnology, 2024)", "proteins": {"B1": {"name": "asparaginase Tli10209 (Thermococcus litoralis DSM 5473) (protein)", "chain": "MSEKRKLERRGAEDMKRILIIGTGGTIASAKTDAGFKSVLTIDEILEKADIKLKNGYEIDTRNILNIDSTLIQPEDWERIAKEVYKALEDYDGIVITHGTDTLAYTASMLTFMIRGINKPVVLTGSMRPVTEEESDAPRNLKAAIRFAMEDVSGIFVAFMDKIMLGCRTSKIRALGLNAFMSINYPDVAYVKGEEVIYNLPQKRFKPKGEPVLDTKYEPRVVFIRLTPGLDGNAIDALVKAGYRGIVLEGYGAGGIPYRKRDILSKIREITPQIPVVMTTQALYDGVDLTKYEVGRKALEAGIIPAKDMTKETTITKLMWALGHTKNVEEVKEIMHTNYADEIEG", "notes": "recombinant, purified by Ni2+-NTA; free enzyme; expression details in supplement"}, "B2": {"name": "asparaginase Ttha0067 (Thermus thermophilus HB8) (protein)", "chain": "MSAEVLVYRGSLVENRHRVSLALWGPEGLVAYAGDPGRVAYLRSSAKPFQALALYLTGAVERFGLTEEEVALATASHDGTPRHVEVAARFLGKLGLGPEHLVCGVHPPFSREARAALEAQGLAPTPLHHNCSGKHAGMLAAALALGAPAEGYHLPDHPVQRLNLATLEALSGARPGLATDGCSVPTFALSLARAARAFFLLADPGRAPEAYRTPLLRVREAMRRHPDLVAGPGSVDTLLMERLPVVAKRGADGYYGLALLEGPRGPLGVALKVEDGATLAREVAVVALLRALGLDPGKTPWDRPPVRNHRGLEVGHLEARLGLVWV", "notes": "as for B1"}, "B3": {"name": "arginase Tli08105 (Thermococcus litoralis DSM 5473) (protein)", "chain": "MLFGIPSSKKPNLYILGIPWDNSSSFRRGCAEGPRAIREATSEELYNSFNEELVNLTEHWSYKDLGDIKADTFEELVEKVNAIVRKHYNGELFLFLGGDHSITYATFKAIKEASNEDFGLIYFDAHPDMYPEYDGDEYSHACTVRRLIEEGWVKGENVVQIGVRAPTREQVEFAKEHGVKIISASGIYRSPVIQVPFEKAYLSFDMDVLDPAFAPGVGNPEPGGLSTRELVEVIKSLNVEIIAFDIVELNPKYDYKGISAFAAAKIIREVLGKAAKTK", "notes": "as for B1"}}, "assay_in_all_cases": "Lineweaver-Burk plot of the Michaelis-Menten equation", "key": {"[1]": {"substrate": "NC(=O)C[C@H](N)C(=O)O", "format": "biochemical, Thermococcus litoralis", "conditions": "90 °C, pH 9.0, free enzyme", "description": "Lineweaver-Burk plot of the Michaelis-Menten equation on asparaginase Tli10209"}, "[2]": {"substrate": "NC(=O)C[C@H](N)C(=O)O", "format": "biochemical, Thermus thermophilus", "conditions": "80 °C, pH 9.0, free enzyme", "description": "Lineweaver-Burk plot of the Michaelis-Menten equation on asparaginase Ttha0067"}, "[3]": {"substrate": "N=C(N)NCCC[C@H](N)C(=O)O", "format": "biochemical, Thermococcus litoralis", "conditions": "70 °C, pH 10.0, free enzyme", "description": "Lineweaver-Burk plot of the Michaelis-Menten equation on arginase Tli08105"}}}
{"protein": "B1", "values": [{"measurement": "Km", "setting": "[1]", "value": 4.340, "unit": "mM"}, {"measurement": "kcat", "setting": "[1]", "value": 2080, "unit": "s⁻¹"}, {"measurement": "kcat/Km", "setting": "[1]", "value": 479000, "unit": "M⁻¹ s⁻¹"}]}
{"protein": "B2", "values": [{"measurement": "Km", "setting": "[2]", "value": 6.178, "unit": "mM"}, {"measurement": "kcat", "setting": "[2]", "value": 1210, "unit": "s⁻¹"}, {"measurement": "kcat/Km", "setting": "[2]", "value": 196000, "unit": "M⁻¹ s⁻¹"}]}
{"protein": "B3", "values": [{"measurement": "Km", "setting": "[3]", "value": 1.059, "unit": "mM"}, {"measurement": "Vmax", "setting": "[3]", "value": 961, "unit": "µM/min"}, {"measurement": "kcat", "setting": "[3]", "value": 1.25, "unit": "s⁻¹"}, {"measurement": "kcat/Km", "setting": "[3]", "value": 1350, "unit": "M⁻¹ s⁻¹"}]}
